Reference: patent publication US8530168B2, “Fusion protein comprising a Caspase domain and a nuclear hormone receptor binding domain and methods and uses thereof” (Helmholtz Zentrum Munich Deutsches Forschungszentrum fuer …, priority 2007, dated 2013)

How the values were obtained:
Format in all cases: cell-based, mouse
MEF5/N9 cells [1] = experiment: Transient cotransfection of ER(T2) fusion expression vectors with β-galactosidase reporter; β-galactosidase activity in lysates; conditions: 10^−8 M 4-OH-tamoxifen, 48 h; relative to Cre-ER(T2) without 4-OH-tamoxifen
Outline: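 MEF5/N9 mouse embryonic fibroblasts transiently cotransfected with pCMV-β-gal reporter (100 ng) plus ER(T2) fusion vector (100 ng; 50 ng for Casp9 constructs), then induced with 10^−8 M 4-OH-tamoxifen for 48 h. Lysate β-galactosidase read by chemiluminescence (RLU), mean of two wells, expressed relative to uninduced pCAG-Cre-ER(T2) control set at 1.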

MEF5/N9 cells [2] = experiment: Visible phenotypic changes / viability of stably transfected MEF5/N9 clones on 4-OH-tamoxifen treatment; conditions: 10^−8 M 4-OH-tamoxifen, 24 h
Outline: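 Hygromycin-selected MEF5/N9 clones stably expressing ER(T2) fusion proteins were plated at 1·10^5 cells/well and next day given 10^−8 M 4-hydroxy-tamoxifen. Cell death was judged from phase-contrast micrographs at 10- or 20-fold magnification taken 24 h after induction.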

MEF5/N9 cells [3] = experiment: MTT cytotoxicity assay of stably transfected MEF5/N9 clones; conditions: 10^−8 M 4-OH-tamoxifen, 48 h
Outline: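 Hygromycin-selected MEF5/N9 clones stably carrying ER(T2) fusion constructs, 4·10^3 cells/well, treated 48 h with or without 10^−8 M 4-OH-tamoxifen, in triplicate. Survival measured by MTT (0.5 mg/ml, 4 h, 37° C), formazan dissolved in HCl/isopropanol, absorbance at 570 nm.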

MEF5/N9 cells [4] = experiment: Transient cotransfection of ER(T2) fusion expression vectors with β-galactosidase reporter; β-galactosidase activity in lysates; conditions: no 4-OH-tamoxifen; transient transfection 50 or 100 ng vector; relative to Cre-ER(T2) without 4-OH-tamoxifen

B1: Casp9full-ER(T2): full length murine Caspase-9 fused to ER(T2) ligand binding domain, SEQ ID NO: 29 (protein)
chain: MDEADRQLLRRCRVRLVSELQVAELWDALLSRELFTRDMIEDIQQAGSGSRRDQARQLVTDLETRGRQALPLFISCLEDTGQGTLASLLQSGRQAAKQDPEAVKPLDHLVPVVLGPMGLTAKEQRVVKLDPSQPAVGNLTPVVLGPEELWPARLKPEVLRPETPRPVDIGSGGAHDVCVPGKIRGHADMAYTLDSDPCGHCLIINNVNFCPSSGLGTRTGSNLDRDKLEHRFRWLRFMVEVKNDLTAKKMVTALMEMAHRNHRALDCFVVVILSHGCQASHLQFPGAVYGTDGCSVSIEKIVNIFNGSGCPSLGGKPKLFFIQACGGEQKDHGFEVACTSSQGRTLDSDSEPDAVPYQEGPRPLDQLDAVSSLPTPSDILVSYSTFPGFVSWRDKKSGSWYIETLDGILEQWARSEDLQSLLLRVANAVSAKGTYKQIPGCFNFLRKKLFFKTSVEPSAGDMRAANLWPSPLMIKRSKKNSLALSLTADQMVSALLDAEPPILYSEYDPTRPFSEASMMGLLTNLADRELVHMINWAKRVPGFVDLTLHDQVHLLECAWLEILMIGLVWRSMEHPVKLLFAPNLLLDRNQGKCVEGMVEIFDMLLATSSRFRMMNLQGEEFVCLKSIILLNSGVYTFLSSTLKSLEEKDHIHRVLDKITDTLIHLMAKAGLTLQQQHQRLAQLLLILSHIRHMSNKGMEHLYSMKCKNVVPLYDLLLEAADAHRLHAPTSRGGASVEETDQSHLATAGSTSSHSLQKYYITGEAEGFPATA
modifications: fusion protein Casp9full-ER(T2)
relative β-galactosidase activity in presence of 4-OH-tamoxifen compared to the negative control (MEF5/N9 cells [1]): 7%
4-OH-tamoxifen-dependent cell death, phenotype of stable clones (MEF5/N9 cells [2]): died in the presence of 4-OH-tamoxifen within 24 h
4-OH-tamoxifen-dependent cell death, phenotype of stable clones (MEF5/N9 cells [2]; listed as Casp9fullER): substantial cell death
cell viability in the presence of 4-OH-tamoxifen (MTT) (MEF5/N9 cells [3]): 6%
basal toxicity: relative β-galactosidase activity compared to the negative control in absence of 4-OH-tamoxifen (MEF5/N9 cells [4]): 62%
